From patent publication US20060183702A1

Molecular target: IIbIIIa receptor on human platelets (human) (UniProt P08514)
UniProt P08514, sequence (P08514 32-1039, chain 1 of 2): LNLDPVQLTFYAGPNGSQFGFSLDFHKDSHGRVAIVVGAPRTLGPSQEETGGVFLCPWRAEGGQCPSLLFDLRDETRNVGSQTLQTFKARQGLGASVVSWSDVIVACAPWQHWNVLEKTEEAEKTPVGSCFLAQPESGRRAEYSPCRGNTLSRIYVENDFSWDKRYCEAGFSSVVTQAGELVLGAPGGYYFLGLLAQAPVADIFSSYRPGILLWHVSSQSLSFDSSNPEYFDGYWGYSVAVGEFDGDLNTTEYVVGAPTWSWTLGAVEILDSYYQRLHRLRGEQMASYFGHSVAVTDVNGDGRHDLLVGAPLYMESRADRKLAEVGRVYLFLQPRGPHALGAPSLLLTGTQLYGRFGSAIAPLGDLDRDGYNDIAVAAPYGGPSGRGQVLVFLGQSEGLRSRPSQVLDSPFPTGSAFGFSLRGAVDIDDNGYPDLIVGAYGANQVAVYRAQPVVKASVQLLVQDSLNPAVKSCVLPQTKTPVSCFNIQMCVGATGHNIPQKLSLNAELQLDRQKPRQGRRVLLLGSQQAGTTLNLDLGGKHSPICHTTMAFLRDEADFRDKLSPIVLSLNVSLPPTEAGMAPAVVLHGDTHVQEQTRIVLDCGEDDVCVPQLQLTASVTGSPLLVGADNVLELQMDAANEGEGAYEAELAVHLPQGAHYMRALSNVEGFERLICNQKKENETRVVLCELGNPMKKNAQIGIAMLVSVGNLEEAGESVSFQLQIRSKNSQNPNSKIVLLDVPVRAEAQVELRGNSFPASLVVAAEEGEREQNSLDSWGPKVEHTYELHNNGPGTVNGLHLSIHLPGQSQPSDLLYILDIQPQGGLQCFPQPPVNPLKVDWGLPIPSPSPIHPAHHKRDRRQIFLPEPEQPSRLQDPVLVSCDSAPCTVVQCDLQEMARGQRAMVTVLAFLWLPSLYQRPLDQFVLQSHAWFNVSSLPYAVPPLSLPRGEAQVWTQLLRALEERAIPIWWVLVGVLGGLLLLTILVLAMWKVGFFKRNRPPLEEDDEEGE
UniProt P08514, sequence (P05106 27-788, chain 2 of 2, further chain): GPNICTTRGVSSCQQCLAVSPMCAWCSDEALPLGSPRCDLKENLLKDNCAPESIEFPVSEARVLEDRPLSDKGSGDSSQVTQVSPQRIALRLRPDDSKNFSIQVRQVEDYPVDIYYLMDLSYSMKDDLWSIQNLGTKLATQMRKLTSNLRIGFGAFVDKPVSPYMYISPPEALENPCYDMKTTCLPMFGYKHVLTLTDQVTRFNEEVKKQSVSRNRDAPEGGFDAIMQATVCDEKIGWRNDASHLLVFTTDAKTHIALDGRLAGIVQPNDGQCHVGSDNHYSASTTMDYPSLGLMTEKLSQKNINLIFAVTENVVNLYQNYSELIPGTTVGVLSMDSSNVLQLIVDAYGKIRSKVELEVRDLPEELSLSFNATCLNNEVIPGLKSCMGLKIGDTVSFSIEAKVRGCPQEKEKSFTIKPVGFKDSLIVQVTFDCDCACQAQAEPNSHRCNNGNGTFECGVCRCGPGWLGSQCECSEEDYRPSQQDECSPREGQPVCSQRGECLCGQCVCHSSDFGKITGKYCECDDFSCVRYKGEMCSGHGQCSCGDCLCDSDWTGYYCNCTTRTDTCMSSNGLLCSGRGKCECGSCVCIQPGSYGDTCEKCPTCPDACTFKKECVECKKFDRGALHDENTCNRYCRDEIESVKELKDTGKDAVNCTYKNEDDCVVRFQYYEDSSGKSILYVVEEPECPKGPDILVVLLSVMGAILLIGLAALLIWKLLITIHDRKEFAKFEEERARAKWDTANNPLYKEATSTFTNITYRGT

Integrilin (peptide)
IC50 (read off the curve), ADP-induced platelet aggregation (AIPA) in human PRP: 200 nM
